In patent US20250276075A1, “METHODS OF TREATING AXL-EXPRESSING CANCERS WITH ANTI-AXL ANTIBODIES, ANTIBODY FRAGMENTS AND THEIR IMMUNOCONJUGATES” (BIOATLA, INC., priority 2020, published 2025):

Columns and labels:
human Axl = molecular target: T1, human Axl (Homo sapiens, UniProt P30530); test: BA3011 binding to human Axl in TME and normal tissue conditions
T1 sequence (P30530 26-894): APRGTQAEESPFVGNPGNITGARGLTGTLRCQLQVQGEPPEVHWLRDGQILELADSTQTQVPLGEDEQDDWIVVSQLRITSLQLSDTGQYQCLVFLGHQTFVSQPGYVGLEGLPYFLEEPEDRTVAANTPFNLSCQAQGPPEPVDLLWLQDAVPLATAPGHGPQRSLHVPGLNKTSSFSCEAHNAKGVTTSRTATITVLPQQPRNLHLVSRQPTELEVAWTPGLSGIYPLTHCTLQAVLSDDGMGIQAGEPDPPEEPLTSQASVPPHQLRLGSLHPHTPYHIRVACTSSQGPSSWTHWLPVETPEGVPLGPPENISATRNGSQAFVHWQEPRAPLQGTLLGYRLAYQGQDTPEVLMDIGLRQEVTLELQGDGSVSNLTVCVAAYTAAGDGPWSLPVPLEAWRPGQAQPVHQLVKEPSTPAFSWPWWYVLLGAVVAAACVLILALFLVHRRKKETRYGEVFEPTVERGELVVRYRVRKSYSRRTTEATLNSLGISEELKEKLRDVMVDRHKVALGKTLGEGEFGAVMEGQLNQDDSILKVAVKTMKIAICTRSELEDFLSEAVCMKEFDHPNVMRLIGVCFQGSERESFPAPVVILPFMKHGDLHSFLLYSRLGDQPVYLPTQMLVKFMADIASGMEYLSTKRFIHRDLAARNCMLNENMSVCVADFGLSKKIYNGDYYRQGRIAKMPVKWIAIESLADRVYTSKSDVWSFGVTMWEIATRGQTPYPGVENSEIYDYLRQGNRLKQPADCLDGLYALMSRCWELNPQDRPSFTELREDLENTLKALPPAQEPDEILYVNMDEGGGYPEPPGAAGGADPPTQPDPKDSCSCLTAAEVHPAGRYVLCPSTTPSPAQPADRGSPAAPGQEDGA

[1] = system: human tumor cell line derived xenograft tumors expressing Axl; test: BA3011 anti-tumor efficacy in xenograft mouse models; assay type: in vivo
Method: Tumor cell lines representing NSCLC (LCLC103H), prostate (DU145), and pancreatic tumor (MIAPaCa2) were tested in this in vivo mouse model system. Once tumors were established at a size of about 150 mm3, animals were treated with BA3011 at the indicated dose levels following the indicated schedule. BA3011 induced greater than 70% TGI in 4 out of 7 models tested, as shown on FIG. 17D.

[2] = Phase 1 clinical study of BA3011: pharmacokinetics; assay type: in vivo, human
Excerpt: • PK of BA3011: plasma concentrations of ADC, total antibody and MMAE, and PK parameters, including Cmax and AUC. • Efficacy (expansion cohorts only): ORR, disease control rate (DCR), time to response (TTR), duration of response (DOR), best objective response (OR), progression-free survival (PFS), overall survival (OS), and percent change from baseline in tumor size. • Immunogenicity of BA3011: the number and percentage of patients who develop detectable anti-drug antibodies (ADAs).
Sample collection timepoints for BA3011 PK, PD, and immunogenicity testing are presented in Table 18 (Phase 1) and Table 19 (Phase 2).
In Phase 1 (NCT03425279), BA3011 was administered once (Q3W) or twice (2Q3W) every 3 weeks via intravenous (IV) infusion.

[3] = at the dose and schedules tested

B1: Mecbotamab vedotin (conjugate, chains of the INN, looked up)
VH: EVQLVQSGAEVKKPGATVKISCKVSGYSFWGATMNWIRQPPGKGLEWIGLIKPSNGGTSYNQKFKGRVTISADKSISTAYLQWSSLKASDTAMYYCAHGHYESYEAMDYWGQGTLVTVSS
VL: DIQMTQSPSSLSASVGDRVTITCKASQDVVSAVAWYQQKPGQAPRLLIYWQDTRHTGVPSRFSGSGSGTEFTLTISSLQPDDFATYYCQEHFSPPLTFGQGTKVEIK
modifications: MC-vc-PAB-MMAE conjugate
binding to human Axl (human Axl; conditions mimicking the TME (pH 6.0-7.0)): high affinity and specificity
binding to human Axl (human Axl; conditions mimicking the normal tissue environment (pH 7.3-7.4)): reduced binding
body weight loss [1, 3]: did not induce body weight loss
clinical signs of toxicity [1, 3]: no other clinical signs of toxicity were noted
tumor growth inhibition (TGI) relative to control ([1]; in 4 out of 7 models tested): greater than 70%
PK profile [2]: approximately dose proportional
half-life [2]: approximately 4 days
